Literature values, collected in article PMC6829319.

Molecular target: CdiA toxin (Escherichia coli) (UniProt Q0T963)
Sequence (Q0T963 3016-3242): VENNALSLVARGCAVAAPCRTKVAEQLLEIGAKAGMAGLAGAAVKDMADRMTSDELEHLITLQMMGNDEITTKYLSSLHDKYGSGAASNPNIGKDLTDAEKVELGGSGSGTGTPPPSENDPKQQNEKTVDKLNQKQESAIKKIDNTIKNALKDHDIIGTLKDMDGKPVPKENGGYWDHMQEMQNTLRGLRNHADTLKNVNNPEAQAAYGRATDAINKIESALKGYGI

CysK, sequence (P0ABK5 2-323): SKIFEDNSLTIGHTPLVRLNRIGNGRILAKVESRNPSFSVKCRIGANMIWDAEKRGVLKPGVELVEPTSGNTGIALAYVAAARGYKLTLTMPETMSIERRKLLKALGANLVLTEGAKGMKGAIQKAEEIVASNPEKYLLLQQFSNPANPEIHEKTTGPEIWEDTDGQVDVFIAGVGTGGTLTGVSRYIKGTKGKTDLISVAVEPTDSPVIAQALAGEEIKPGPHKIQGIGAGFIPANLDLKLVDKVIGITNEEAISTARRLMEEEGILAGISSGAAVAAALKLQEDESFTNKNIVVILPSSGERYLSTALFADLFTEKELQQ

## CysK (from UniProt P0ABK5)
  Kd: 5 nM
